Experimental data from patent EP3505186B1, “NUCLEOPHILIC CATALYSTS FOR OXIME LINKAGE” (Takeda Pharmaceutical Company Limited, priority 2010, dated 2012).

Experiments:
[1] = in vitro studies; Bombhard and Herbold 2005; cited from earlier work
rats = conditions: long-term dietary treatment of rats; Goodman et al. 1984; cited from earlier work
[2] = Harrison and Jollow 1987; cited from earlier work
[3] = Specific activity of the Prolia conjugate: biological activity by methods known in the art and total protein (Bradford)
Method: The free Prolia is removed by means of cation exchange chromatography (CEC). The reaction mixture is diluted with 20 ml Buffer A (50 mM Hepes, pH 6.5) and loaded onto a 20 ml HiPrep SPFF 16/10 column (GE Healthcare, Fairfield, CT) pre-equilibrated with Buffer A. Then the column is eluted with Buffer B (50 mM Hepes, 1 M NaCl, pH 6.5). Free Prolia is eluted by washing the column with 25 % Buffer B and the conjugate at 50 % Buffer B. The conductivity of the conjugate containing fractions is subsequently raised to -190 mS/cm with Buffer C (50 mM Hepes, 5 M NaCl, pH 6.9) and loaded onto a 20 ml HiPrep Butyl FF 16/10 column (GE Healthcare, Fairfield, CT) pre-equilibrated with Buffer D (50 mM Hepes, 3 M NaCl, pH 6.9). Free PSA-reagent is washed out within 5 CV Buffer D. Subsequently, the conjugate is eluted with 100 % Buffer E (50 mM Hepes, pH 6.9). The conjugate containing fractions are concentrated by UF/DF using a 10 kD membrane made of regenerated cellulose (88 cm2, cut-off 10 kD, Millipore). The final diafiltration step is performed against histidine buffer, pH 6.9 containing 150 mM NaCl. The preparation is analytically characterized by measuring total protein (Bradford) and biological activity according to methods known in the art. For the PSA-Prolia conjugate a specific activity of > 50 % in comparison to native Prolia is determined. The conjugate is additionally analytically characterized by Size Exclusion HPLC using a Agilent 1200 HPLC system equipped with a Shodex KW 803 column under conditions as previously described (Kolarich et al, Transfusion 2006;46:1959-77). It is shown that the preparation contains no free Prolia.
The free Prolia is removed by means of cation exchange chromatography (CEC). The reaction mixture is diluted with 20 ml Buffer A (50 mM Hepes, pH 6.5) and loaded onto a 20 ml HiPrep SPFF 16/10 column (GE Healthcare, Fairfield, CT) pre-equilibrated with Buffer A. Then the column is eluted with Buffer B (50 mM Hepes, 1 M NaCl, pH 6.5). Free Prolia is eluted by washing the column with 25 % Buffer B and the conjugate at 5 0% Buffer B. The conductivity of the conjugate containing fractions is subsequently raised to -190 mS/cm with Buffer C (50 mM Hepes, 5 M NaCl, pH 6.9) and loaded onto a 20 ml HiPrep Butyl FF 16/10 column (GE Healthcare, Fairfield, CT) pre-equilibrated with Buffer D (50 mM Hepes, 3 M NaCl, pH 6.9). Free PSA-reagent is washed out within 5 CV Buffer D. Subsequently the conjugate is eluted with 100% Buffer E (50 mM Hepes, pH 6.9). The conjugate containing fractions are concentrated by UF/DF using a 10 kD membrane made of regenerated cellulose (88 cm^2, cut-off 10 kD / Millipore). […] For the PSA-Prolia conjugate a specific activity of > 50 % in comparison to native Prolia is determined. […]

## Nc1ccccc1 [aniline]
[1]
  chromosome mutations / genotoxic activity: potential to induce chromosome mutations
rats
  tumors in the spleen: induce tumors in the spleen
[2]
  methemoglobinemia: induce methemoglobinemia

## PEG-Prolia conjugate: Prolia PEGylated with a linear 20 kD aminooxy PEGylation reagent, m-toluidine as catalyst
[3]; Reference Example 44 Method 1, alternative (oxidation, then m-toluidine and 20 kD aminooxy-PEG, 5-fold)
  specific activity in comparison to native Prolia: > 50%
[3]; Reference Example 44 Method 3, alternative (simultaneous, 20 kD aminooxy-PEG, 5-fold)
  specific activity in comparison to native Prolia: > 50%

## PSA-Prolia conjugate: Prolia polysialylated with 20 kD aminooxy-PSA reagent, m-toluidine as catalyst
[3]; Reference Example 30 Method 1, alternative (oxidation, then m-toluidine and 20 kD aminooxy-PSA, 5-fold)
  specific activity in comparison to native Prolia: > 50%
[3]; Reference Example 30 Method 3, alternative (simultaneous, 20 kD aminooxy-PSA, 5 fold)
  specific activity in comparison to native Prolia: > 50%
